Biological target: Negative control peptide 2014 (1907 with L145E and L152E) (UniProt P49023 141-153, S143 (i,i + 7 staple position), i,i + 7 all-hydrocarbon staple as in 1907)
Experiment: SPR

- Kd: > 200 µM
B1: Biotinylated AviTag FAK FAT protein (domain or fragment)
chain: MAAAYLDPNLNHTPNSSTKTHLGTGMERSPGAMERVLKVFHYFESNSEPTTWASIIRHGDATDVRGIIQKIVDSHKVKHVACYGFRLSHLRSEEVHWLHVDMGVSSVREKYELAHPPEEWKYELRIRYLPKGFLNQFTEDKPTLNFFYQQVKSDYMLEIADQVDQEIALKLGCLEIRRSYWEMRGNALEKKSNYEVLEKDVGLKRFFPKSLLDSVKAKTLRKLIQQTFRQFANLNREESILKFFEILSPVYRFDKECFKCALGSSWIISVELAIGPEEGISYLTDKGCNPTHLADFTQVQTIQYSNSEDKDRKGMLQLKIAGAPEPLTVTAPSLTIAENMADLIDGYCRLVNGTSQSFIIRPQKEGERALPSIPKLANSEKQGMRTHAVSVSETDDYAEIIDEEDTYTMPSTRDYEIQRERIELGRCIGEGQFGDVHQGIYMSPENPALAVAIKTCKNCTSDSVREKFLQEALTMRQFDHPHIVKLIGVITENPVWIIMELCTLGELRSFLQVRKYSLDLASLILYAYQLSTALAYLESKRFVHRDIAARNVLVSSNDCVKLGDFGLSRYMEDSTYYKASKGKLPIKWMAPESINFRRFTSASDVWMFGVCMWEILMHGVKPFQGVKNNDVIGRIENGERLPMPPNCPPTLYSLMTKCWAYDPSRRPRFTELKAQLSTILEEEKAQQEERMRMESRRQATVSWDSGGSDEAPPKPSRPGYPSPRSSEGFYPSPQHMVQTNHYQVSGYPGSHGITAMAGSIYPGQASLLDQTDSWNHRPQEIAMWQPNVEDSTVLDLRGIGQVLPTHLMEERLIRQQQEMEEDQRWLEKEERFLKPDVRLSRGSIDREDGSLQGPIGNQHIYQPVGKPDPAAPPKKPPRPGAPGHLGSLASLSSPADSYNEGVKLQPQEISPPPTANLDRSNDKVYENVTGLVKAVIEMSSKIQPAPPEEYVPMVKEVGLALRTLLATVDETIPLLPASTHREIEMAQKLLNSDLGELINKMKLAQQYVMTSLQQEYKKQMLTAAHALAVDAKNLLDVIDQARLKMLGQTRPH
modifications: biotin (biotinylated AviTag)

From paper PMC11871066 (2025)
